Assay results published in article PMC12280208 (Nature Communications, 2025).

Molecular target: MVP3-5 (MVP residues 102-274), wild type (human, UniProt Q14764 102-274)
Assay: SEC

Chain of MVP3-5 (MVP residues 102-274), wild type (Q14764 102-274): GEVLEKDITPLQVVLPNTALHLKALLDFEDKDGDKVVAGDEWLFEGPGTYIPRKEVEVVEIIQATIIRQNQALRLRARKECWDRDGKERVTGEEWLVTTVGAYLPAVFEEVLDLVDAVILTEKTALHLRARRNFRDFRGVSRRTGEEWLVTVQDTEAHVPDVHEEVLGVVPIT

B1: PARP4 MINT domain (residues 1562-1724), wild type (domain or fragment)
chain: VCIQHWQDAVPWTELLSLQTEDGFWKLTPELGLILNLNTNGLHSFLKQKGIQSLGVKGRECLLDLIATMLVLQFIRTRLEKEGIVFKSLMKMDDASISRNIPWAFEAIKQASEWVRRTEGQYPSICPRLELGNDWDSATKQLLGLQPISTVSPLHRVLHYSQG
binding result: binds
